In data set [1] the target is T1, iC3b (Homo sapiens, UniProt P01024;P01024;P01024 23-667;749-1303;1321-1663). Kind of data set: EMSA. For orientation: Mobility shift assays separate free from complexed probe on a gel.
In data set [2] the target is T1, iC3b. Kind of data set: filter binding.
The target in a further data set is C3b (Homo sapiens, UniProt P01024;P01024 23-667;749-1663). Description: filter binding.
Sequence of C3b (P01024 23-667, chain 1 of 2): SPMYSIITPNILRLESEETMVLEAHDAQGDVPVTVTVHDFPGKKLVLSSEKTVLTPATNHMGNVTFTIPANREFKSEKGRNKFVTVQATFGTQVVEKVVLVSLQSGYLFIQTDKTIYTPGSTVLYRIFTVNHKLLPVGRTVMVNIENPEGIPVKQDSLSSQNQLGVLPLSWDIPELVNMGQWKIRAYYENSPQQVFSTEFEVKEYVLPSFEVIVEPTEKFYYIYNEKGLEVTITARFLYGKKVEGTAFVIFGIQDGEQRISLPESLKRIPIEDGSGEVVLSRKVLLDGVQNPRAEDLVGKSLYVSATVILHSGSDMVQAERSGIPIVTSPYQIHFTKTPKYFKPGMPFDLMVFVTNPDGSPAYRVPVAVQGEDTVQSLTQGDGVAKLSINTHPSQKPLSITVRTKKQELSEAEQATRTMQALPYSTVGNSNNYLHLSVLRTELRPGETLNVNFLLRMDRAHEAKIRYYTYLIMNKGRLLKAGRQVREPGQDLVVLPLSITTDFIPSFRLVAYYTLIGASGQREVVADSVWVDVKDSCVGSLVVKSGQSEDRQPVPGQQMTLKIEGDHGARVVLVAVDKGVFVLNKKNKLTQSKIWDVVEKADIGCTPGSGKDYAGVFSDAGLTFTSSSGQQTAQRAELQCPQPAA
Sequence of C3b (P01024 749-1663, chain 2 of 2): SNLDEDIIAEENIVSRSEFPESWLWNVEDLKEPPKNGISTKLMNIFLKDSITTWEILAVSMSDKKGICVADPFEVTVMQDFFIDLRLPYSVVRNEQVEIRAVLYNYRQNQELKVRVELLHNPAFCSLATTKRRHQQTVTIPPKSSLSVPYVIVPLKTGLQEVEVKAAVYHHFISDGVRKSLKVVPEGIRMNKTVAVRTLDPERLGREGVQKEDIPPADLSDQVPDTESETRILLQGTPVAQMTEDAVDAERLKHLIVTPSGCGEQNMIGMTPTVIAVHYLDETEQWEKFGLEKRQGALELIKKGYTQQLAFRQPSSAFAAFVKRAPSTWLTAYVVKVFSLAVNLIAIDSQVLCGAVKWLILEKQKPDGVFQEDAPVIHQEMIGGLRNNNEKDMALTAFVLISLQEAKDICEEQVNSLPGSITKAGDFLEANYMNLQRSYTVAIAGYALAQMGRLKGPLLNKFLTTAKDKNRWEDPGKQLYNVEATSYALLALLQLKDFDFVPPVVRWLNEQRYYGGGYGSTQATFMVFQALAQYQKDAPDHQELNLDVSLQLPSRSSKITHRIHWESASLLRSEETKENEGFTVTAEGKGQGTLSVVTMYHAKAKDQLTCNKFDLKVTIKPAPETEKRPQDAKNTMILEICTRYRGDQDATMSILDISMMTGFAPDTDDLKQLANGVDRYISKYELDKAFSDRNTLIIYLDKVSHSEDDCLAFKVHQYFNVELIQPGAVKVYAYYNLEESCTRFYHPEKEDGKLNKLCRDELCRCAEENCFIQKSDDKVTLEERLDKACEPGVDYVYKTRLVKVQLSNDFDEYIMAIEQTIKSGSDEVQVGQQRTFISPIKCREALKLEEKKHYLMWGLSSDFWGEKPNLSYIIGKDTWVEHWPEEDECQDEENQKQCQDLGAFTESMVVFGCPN

T1 sequence (P01024 23-667, chain 1 of 3): as the sequence (P01024 23-667, chain 1 of 2) above
T1 sequence (P01024 749-1303, chain 2 of 3): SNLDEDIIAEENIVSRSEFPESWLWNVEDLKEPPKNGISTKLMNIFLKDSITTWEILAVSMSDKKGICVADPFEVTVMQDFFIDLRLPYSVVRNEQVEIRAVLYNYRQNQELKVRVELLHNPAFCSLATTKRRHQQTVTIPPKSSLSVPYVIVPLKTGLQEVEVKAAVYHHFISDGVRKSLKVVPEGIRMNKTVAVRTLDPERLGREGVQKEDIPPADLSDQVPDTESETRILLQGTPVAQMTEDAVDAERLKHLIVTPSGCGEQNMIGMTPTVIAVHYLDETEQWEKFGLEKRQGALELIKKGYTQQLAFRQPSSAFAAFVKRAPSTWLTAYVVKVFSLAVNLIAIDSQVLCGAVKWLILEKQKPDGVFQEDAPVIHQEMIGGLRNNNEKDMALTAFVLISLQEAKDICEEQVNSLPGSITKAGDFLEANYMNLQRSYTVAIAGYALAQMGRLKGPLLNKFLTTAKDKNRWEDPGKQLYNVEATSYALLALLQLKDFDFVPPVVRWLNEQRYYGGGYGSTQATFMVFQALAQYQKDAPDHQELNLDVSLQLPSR
T1 sequence (P01024 1321-1663, chain 3 of 3): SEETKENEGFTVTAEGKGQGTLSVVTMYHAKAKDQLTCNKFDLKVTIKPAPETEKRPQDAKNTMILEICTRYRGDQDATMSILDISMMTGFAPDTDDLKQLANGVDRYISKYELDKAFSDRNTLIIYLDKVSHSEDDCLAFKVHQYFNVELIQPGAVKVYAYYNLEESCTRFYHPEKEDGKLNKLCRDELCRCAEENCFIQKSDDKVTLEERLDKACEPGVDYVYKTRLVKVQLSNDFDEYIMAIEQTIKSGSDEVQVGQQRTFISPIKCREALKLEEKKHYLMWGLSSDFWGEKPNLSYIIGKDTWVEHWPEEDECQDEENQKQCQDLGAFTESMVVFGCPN

B1: AptC3-2 (structured_RNA)
RNA: GGGAGAAUUCAACUGCCAUCUAGGCAAAUCCGCGAGCGCCGGUACCGGUGGCGCAUGCCCACACAGCACUAAACGAGUACUACAAGCUUCUGGACUCGGU
Consider B1, for which the binding result with iC3b [1] is reported as “no binding”.

B2: Apt[C3-GFP] (structured_RNA)
RNA: GGGAGCCUGAUGGCAGGGCGAAUUGGGUGGGGAAAGUCCUUAAAAGAGGGCCACCACAGAAGCAAUGGGCUUCUGGACUCGGUCCCGCUCGGCUAGAAGAAUAUGACGGAUUGACCGUAUCAGGGUAGCCGAGC
B2: the binding result with iC3b [2] and in the data set with C3b was “binds” throughout.
